Laboratory results reported in article PMC7439320 (Science Advances, 2020).
Several values for one entry are separate records, joined by “and”; a condition that tells them apart may be missing. Equal entries are not always repeated.

B1: Oryzias latipes CALHM1 truncated at the C terminus (OlCALHM1EM) (domain or fragment)
chain: MDKFRMMFQFLQSNQESFMNGICGIMALASAQMYSSFEFSCPCMPEYNYTYGIGLLIIPPIWFFLLGFVLNNNVSVLAEEWKRPTGRRTKDPSVLRYMLCSITQRSLIAPAVWVSVTLMDGKSFLCAFSINLDIEKFGNASLVIGMTETEKLKFLARIPCKDLFEDNEVRVAATRYIKCISQACGWMFLLMMTFTAFLIRAIRPCFTQAAFLKTKYWSHYIDIERKMFDETCKEHAKSFAKVCIHQYFENISGEMQNFHRHQSKDTSDAEEEEKQRSDEDKLLGIKAQEDMNKVL
B2: Chimeric channel of the TMD from OlCALHM1 and the CTD from HsCALHM2 (OlCALHM1c) (other)
chain: MDKFRMMFQFLQSNQESFMNGICGIMALASAQMYSSFEFSCPCMPEYNYTYGIGLLIIPPIWFFLLGFVLNNNVSVLAEEWKRPTGRRTKDPSVLRYMLCSITQRSLIAPAVWVSVTLMDGKSFLCAFSINLDIEKFGNASLVIGMTETEKLKFLARIPCKDLFEDNEVRVAATRYIKCISQACGWMFLLMMTFTAFLIRAIRPCFTQASYRQEAYWAQYRANEDQLFQRTAEVHSRVLAANNVRRFFGFVALNKDDEELIANFPVEGTQPRPQWNAITGVYLYRENQGLPLYSRLHKWAQGLAGNGAAPDNVEMALLPS
B3: Homo sapiens calcium homeostasis modulator 2 (HsCALHM2) (natural protein)
chain: MAALIAENFRFLSLFFKSKDVMIFNGLVALGTVGSQELFSVVAFHCPCSPARNYLYGLAAIGVPALVLFIIGIILNNHTWNLVAECQHRRTKNCSAAPTFLLLSSILGRAAVAPVTWSVISLLRGEAYVCALSEFVDPSSLTAREEHFPSAHATEILARFPCKENPDNLSDFREEVSRRLRYESQLFGWLLIGVVAILVFLTKCLKHYCSPLSYRQEAYWAQYRANEDQLFQRTAEVHSRVLAANNVRRFFGFVALNKDDEELIANFPVEGTQPRPQWNAITGVYLYRENQGLPLYSRLHKWAQGLAGNGAAPDNVEMALLPS
B4: Caenorhabditis elegans calcium homeostasis modulator protein CLHM-1 (CeCLHM-1) (natural protein)
chain: MTTSINSVVTVFQNVFTNHGSTLLNGILIATTVGGQSLVRKLTFSCPCAYPLNIYHSLVFMFGPTAALLLIGITVNSTTWKLAHGFFFRVRDTRHSWKTTCVSWIEVLIQSSVAPIAWLFVVFLDGGYYRCYRSHEFCLISDAILCKNSTILNSYASTSSFNKISDNGKYCPPCICVPNPTDASYLEAESQIYAWGLLLFSGVAAFLVITCNRMCDKYTLVQRQYVETYKNVETQKFDAVAKEHASQLAEHNARAFFGQKDWTKRDWDWVSGIPEVNNPLFARLRLIAAEKTQQTMYTPLQLWNDNKGYRIPQPDLQLTQIIVDETKED

Target: the molecule itself
Test: cryo-EM structure

Protein | stoichiometry N
B1 | 8
B2 | 8 and 9
B3 | 11
B4 | 9
